In patent publication US9233155B2, “Method of treating solid cancers using anti-c-Met antibody and sorafenib combination therapy” (Samsung Electronics Co., Ltd., priority 2013, dated 2016):

B1: L3-1Y: anti-c-Met antibody: heavy chain variable region of huAbF46-H4-A1, human IgG2 hinge and IgG2 constant region, kappa light chain (antibody)
heavy: EVQLVESGGGLVQPGGSLRLSCAASGFTFTDYYMSWVRQAPGKGLEWLGFIRNKANGYTTEYSASVKGRFTISRDNSKNTLYLQMNSLRAEDTAVYYCARDNWFAYWGQGTLVTVSSASTKGPSVFPLAPCSRSTSESTAALGCLVKDYFPEPVTVSWNSGALTSGVHTFPAVLQSSGLYSLSSVVTVPSSNFGTQTYTCNVDHKPSNTKVDKTVERKCCVECPPCPAPPVAGPSVFLFPPKPKDTLMISRTPEVTCVVVDVSHEDPEVQFNWYVDGVEVHNAKTKPREEQFNSTFRVVSVLTVVHQDWLNGKEYKCKVSNKGLPAPIEKTISKTKGQPREPQVYTLPPSREEMTKNQVSLTCLVKGFYPSDIAVEWESNGQPENNYKTTPPMLDSDGSFFLYSKLTVDKSRWQQGNVFSCSVMHEALHNHYTQKSLSLSPGK
light: DIQMTQSPSSLSASVGDRVTITCKSSQSLLASGNQNNYLAWYQQKPGKAPKMLIIWASTRVSGVPSRFSGSGSGTDFTLTISSLQPEDFATYYCQQSYSRPYTFGQGTKVEIKRTVAAPSVFIFPPSDEQLKSGTASVVCLLNNFYPREAKVQWKVDNALQSGNSQESVTEQDSKDSTYSLSSTLTLSKADYEKHKVYACEVTHQGLSSPVTKSFNRGEC

Experiments:
[1] = test system: MKN45 gastric cancer cells; test: Cell growth inhibition in MKN45 gastric cancer cell line (CellTiter Glo); assay type: cell-based
Method: In particular, RPMI1640 medium (GIBCO) containing 10% FBS was added to a 96 well plate. MKN45 gastric cancer cells (JCRB, JCRB0254) were seeded thereon in the amount of 5,000 cells/well, and incubated overnight at 37° C. After 24 hours (the next day), the incubated cells were treated with (a) L3-1Y (Reference Example 1) alone or (b) L3-1Y and sorafenib. For the single treatment of L3-1Y alone, the concentration of L3-1Y was 0 μg/mL, 0.016 μg/mL, 0.08 μg/mL, 0.4 μg/mL, or 2 μg/mL. For the co-administration of L3-1Y and sorafenib, the concentration of sorafenib was fixed at 4 μM, which is a concentration of IC30 in MKN45 cell line, and the concentration of L3-1Y was 0 μg/mL, 0.016 μg/mL, 0.08 μg/mL, 0.4 μg/mL, or 2 μg/mL.
(§1) At 72 hours after the single treatment or the co-treatment, 100 μL of CellTiter Glo solution (Promega, G7572) was added to each well, and left for 30 minutes at room temperature. The cell number was counted by emission signal, and the emission signal was recorded using Envision 2104 Multi-label Reader (Perkin Elmer).

EBC1 lung cancer cells = test: Cell growth inhibition in EBC1 lung cancer cell line (CellTiter Glo); assay type: cell-based; details: L3-1Y 0-2 μg/mL alone, sorafenib 4 μM alone, or both; 72 hours
Method: (§2) In particular, RPMI1640 medium (GIBCO) containing 10% FBS added to a 96 well plate. EBC1 lung cancer cells (JCRB, JCRB0820) were seeded thereon in the amount of 5,000 cells/well, and incubated overnight at 37° C. After 24 hours (the next day), the incubated cells were treated with (a) L3-1Y (Reference Example 1) alone or (b) L3-1Y and sorafenib. For the single treatment of L3-1Y alone, the concentration of L3-1Y was 0 μg/mL, 0.016 μg/mL, 0.08 μg/mL, 0.4 μg/mL, or 2 μg/mL. For the co-treatment of L3-1Y and sorafenib, the concentration of sorafenib was fixed at 4 μM, and the concentration of L3-1Y was 0 μg/mL, 0.016 μg/mL, 0.08 μg/mL, 0.4 μg/mL, or 2 μg/m L.
as §1

HT29 colon cancer cells [2] = test: Tumor xenograft model of colon cancer cell line HT29; assay type: in vivo, BALB/c nude mice; details: for Tumor Inhibition Rate at 21st day (%; compared to vehicle-treated group (0%)): sorafenib 3.3 mg/kg P.O. once a day, L3-1Y 1 mg/kg I.V. once a week, day 21
Method: (§3) To verify the in vivo effect of the co-administration on tumor growth, a tumor xenograft model using male 5-6 week-old BALB/c nude mice (Pharmalegacy, China) was prepared. The mice were adapted at least one week before inoculation of tumor cells.
(§4) Then, the mice were anesthetized with 1-2% isofurane, and HT29 colon cancer cells I(ATCC, HTB-38) were subcutaneously injected into the right flank of the mice at the amount of 5×10^6 cells per mouse. 7 days after, when the average size of the tumor reaches 50 mm^3 or more, the mice were grouped as follows: a group treated with sorafenib (3.3 mg/kg, P.O., once a day), a group treated with L3-1Y (1 mg/kg, I.V., once a week), a group co-treated with L3-1Y (1 mg/kg, I.V., once a week) and sorafenib (3.3 mg/kg, P.O., once a day), and a group (control) treated with vehicle (PBS 0.2 ml, I.V., once a week).
(§5) The experiment was performed for 4 weeks in total, and tumor size and body weight of the mice were measured twice a week. The tumor volume (V) was calculated by the following formula: V (mm^3)={length of long axis (mm)×(length of short axis (mm))^2}/2.

[3] = test system: MKN45 gastric cancer cells; test: Tumor xenograft model of gastric cancer cell line MKN45; assay type: in vivo, BALB/c nude mice; details: sorafenib 3.3 mg/kg P.O. once a day, L3-1Y 1 mg/kg I.V. once a week, day 21
Method: as §3
as §4, with “and MKN45 gastric” for “and HT29 colon”, “cells (JCRB, JCRB0254)” for “cells I(ATCC, HTB-38)”, “mice in” for “mice at”, “week). Each group consisted of 10 mice.” for “week).”
as §5

[4] = test system: HCC1806 breast cancer cell line; test: Cell growth inhibition in HCC1806 breast cancer cell line (CellTiter Glo); assay type: cell-based; details: L3-1Y 0-2 μg/mL alone or with sorafenib fixed at 3 μM, 72 hours
HT29 colon cancer cells [5] = test: Cell growth inhibition in HT29 colon cancer cell line (CellTiter Glo); assay type: cell-based; details: L3-1Y 0-2 μg/mL alone or with sorafenib fixed at 4 μM, 72 hours
Method: as §2, with “FBS was” for “FBS”, “HT29 colon” for “EBC1 lung”, “(ATCC, HTB-38)” for “(JCRB, JCRB0820)”, “μg/mL.” for “μg/m L.”
as §1

Molecule | inhibition at 4 µM ([1]; Homo sapiens, MKN-45, single treatment of sorafenib 4 μM (0 μg/mL of L3-1Y), 72 hours, read-out: cell growth inhibition rate) | concentration of IC30 in MKN45 cell line ([1]; MKN45 cell line) | cell growth inhibiting effect (EBC1 lung cancer cells) | Tumor Inhibition Rate at 21st day (%; compared to vehicle-treated group (0%)) (HT29 colon cancer cells [2]) | Tumor Inhibition Rate at 21st day (%; compared to vehicle-treated group (0%)) [3] | cell growth inhibiting effect ([1]; L3-1Y 0-2 μg/mL alone or with sorafenib fixed at 4 μM, 72 hours) | cell growth inhibiting effect ([1]; L3-1Y 0.08 μg/mL, alone or with 4 μM sorafenib, 72 hours) | cell death / cell growth inhibiting effect [4] | cell growth inhibiting effect (HT29 colon cancer cells [5]) | tumor inhibiting effect (HT29 colon cancer cells [2]; same doses as Table 4)
CNC(=O)c1cc(Oc2ccc(NC(=O)Nc3ccc(Cl)c(C(F)(F)F)c3)cc2)ccn1 [Sorafenib, 4-[4-[[4-chloro-3-(trifluoromethyl)phenyl]carbamoylamino]phenoxy]-N-methyl-pyridine-2-carboxamide] | 30% | 4 µM | no cell growth inhibiting effect | 22.1% | 24.7% | – | – | – | – | –
B1 | – | – | observed | −0.9% | 36.2% | observed | only a little effect | not observed | not observed | no tumor inhibiting effect
